Test results published in patent CN117999283A (INST BASIC SCIENCE; KOREA ADVANCED INST SCI & TECH, dated 2024).

B1: 人Tie2 ECD (人Tie2的第23-735位残基) (receptor, human, UniProt Q02763 23-735, looked up)
chain: AMDLILINSLPLVSDAETSLTCIASGWRPHEPITIGRDFEALMNQHQDPLEVTQDVTREWAKKVVWKREKASKINGAYFCEGRVRGEAIRIRTMKMRQQASFLPATLTMTVDKGDNVNISFKKVLIKEEDAVIYKNGSFIHSVPRHEVPDILEVHLPHAQPQDAGVYSARYIGGNLFTSAFTRLIVRRCEAQKWGPECNHLCTACMNNGVCHEDTGECICPPGFMGRTCEKACELHTFGRTCKERCSGQEGCKSYVFCLPDPYGCSCATGWKGLQCNEACHPGFYGPDCKLRCSCNNGEMCDRFQGCLCSPGWQGLQCEREGIQRMTPKIVDLPDHIEVNSGKFNPICKASGWPLPTNEEMTLVKPDGTVLHPKDFNHTDHFSVAIFTIHRILPPDSGVWVCSVNTVAGMVEKPFNISVKVLPKPLNAPNVIDTGHNFAVINISSEPYFGDGPIKSKKLLYKPVNHYEAWQHIQVTNEIVTLNYLEPRTEYELCVQLVRRGEGGEGHPGPVRRFTTASIGLPPPRGLNLLPKSQTTLNLTWQPIFPSSEDDFYVEVERRSVQKSDQQNIKVPGNLTSVLLNNLHPREQYVVRARVNTKAQGEWSEDLTAWTLSDILPPQPENIKISNITHSSAVISWTILDGYSISSITIRYKVQGKNEDQHVDVKIKNATITQYQLKGLEPETAYQVDIFAENNIGSSNPAFSHELVTLPES
notes: range 23-735; The construct is defined on GenBank AAH35514.2; Tags are not described; also called hTie2 ECD

Assays:
[1] = target: B1; experiment: SPR (Biacore T200): hTie2 ECD amine-coupled on CM5, IgG as analyte at 0-64 nM, 1:1 model
[2] = target: the molecule itself; experiment: SEC-MALS; self-association in solution

Binder | Kd [1] [nM] | koff [1] [s⁻¹] | kon [1] [M⁻¹ s⁻¹] | binding result [2]
hTAAB (hTie2活化小鼠单克隆抗体, 小鼠IgG1) (antibody, V domains shown, Mouse IgG1 from a hybridoma; also called 小鼠hTAAB; 亲本hTAAB) VH: QVQLQQPGAELVRPGASVKLSCKASGYSFTSYWMNWVKQRPGQGLEWIGMIHPSDSETRLNQKFMDKATLTVDKSSSTAYMQLSSPTSEDSAVYYCARGLYGNSWGQGTLVTVSA VL: DIQMTQSPSSLSASLGERVSLTCRASQDIGISLNWLQQEPDGTIKRLIYATSSLDSGVPKRFSGSRSGSDYSLTISSLESEDFVDYYCLQYASSPYTFGGGTKLEIK | 4.2 | 0.0006 | 140000 | 
B1 |  |  |  | no binding (tested: 1mg/ml)
